Measurements reported in the Immune Epitope Database (IEDB).
Blank lines part the entries; values can stand above or below the sequence they belong to.

Columns and labels:
HLA-A*02:03 = assay: IEDB peptide-MHC binding, purified MHC/direct/fluorescence; filed as Kd, often an IC50 or EC50 that approximates it; ≥ and ≤ were set here for values at or beyond the usual limits of such assays
HLA-A*02:11 = assay: as above
HLA-A*02:12 = assay: as above
HLA-A*02:16 = assay: as above
HLA-A*02:19 = assay: as above
HLA-A*03:01 = assay: as above
HLA-A*11:01 = assay: as above
HLA-A*23:01 = assay: as above; conditions: source organism: Cryptosporidium parvum Iowa II
HLA-A*24:03 = assay: as above
HLA-A*68:02 = assay: as above
HLA-A*02:01 [1] = assay: IEDB peptide-MHC binding, purified MHC/competitive/fluorescence; filed as Kd, often an IC50 or EC50 that approximates it; ≥ and ≤ were set here for values at or beyond the usual limits of such assays
HLA-A*26:01 [2] = assay: as above; conditions: source organism: Cryptosporidium parvum Iowa II
HLA-A*69:01 [3] = assay: as above
HLA-B*18:01 [4] = assay: as above; conditions: source organism: Cryptosporidium parvum Iowa II
HLA-B*27:03 [5] = assay: as above; conditions: source organism: Cryptosporidium parvum Iowa II
HLA-B*39:01 [6] = assay: as above
HLA-B*51:01 [7] = assay: as above; conditions: source organism: Cryptosporidium parvum Iowa II
HLA-B*48:01 = assay: as above
HLA-B*07:02 = assay: as above
HLA-B*08:01 = assay: as above; conditions: source organism: Escherichia coli O157:H7 str. EDL933
HLA-B*15:01 [8] = assay: as above; conditions: source organism: Escherichia coli O157:H7 str. EDL933
HLA-C*07:02 = assay: IEDB peptide-MHC binding, purified MHC/direct/fluorescence; filed as Kd, often an IC50 or EC50 that approximates it; ≥ and ≤ were set here for values at or beyond the usual limits of such assays; conditions: source organism: Entamoeba histolytica HM-1:IMSS
HLA-A*02:01 [9] = assay: as above; conditions: source organism: Mammarenavirus machupoense
HLA-A*26:01 [10] = assay: as above
HLA-A*69:01 [11] = assay: as above; conditions: source organism: Mammarenavirus machupoense
HLA-B*18:01 [12] = assay: as above
HLA-B*27:03 [13] = assay: as above; conditions: source organism: Mammarenavirus machupoense
HLA-B*39:01 [14] = assay: as above
HLA-B*51:01 [15] = assay: as above; conditions: source organism: Mammarenavirus machupoense
HLA-B*57:01 = assay: as above
HLA-A*01:01 [16] = assay: IEDB peptide-MHC binding, purified MHC/competitive/radioactivity; filed as Kd, often an IC50 or EC50 that approximates it; ≥ and ≤ were set here for values at or beyond the usual limits of such assays; conditions: source organism: Mammarenavirus machupoense
HLA-A*29:02 = assay: as above; conditions: source organism: Mammarenavirus machupoense
HLA-A*30:01 = assay: as above; conditions: source organism: Mammarenavirus machupoense
HLA-A*30:02 = assay: as above; conditions: source organism: Mammarenavirus machupoense
HLA-A*32:01 = assay: as above; conditions: source organism: Mammarenavirus machupoense
HLA-A*01:01 [17] = assay: IEDB peptide-MHC binding, purified MHC/direct/fluorescence; filed as Kd, often an IC50 or EC50 that approximates it; ≥ and ≤ were set here for values at or beyond the usual limits of such assays; conditions: source organism: Marburg virus - Musoke, Kenya, 1980
HLA-A*31:01 = assay: as above; conditions: source organism: Marburg virus - Musoke, Kenya, 1980
HLA-B*08:02 = assay: as above; conditions: source organism: Orthomarburgvirus marburgense
HLA-B*15:01 [18] = assay: as above; conditions: source organism: Marburg virus - Musoke, Kenya, 1980
HLA-B*27:05 = assay: as above; conditions: source organism: Marburg virus - Musoke, Kenya, 1980
HLA-B*40:01 = assay: as above; conditions: source organism: Marburg virus - Musoke, Kenya, 1980
HLA-B*46:01 = assay: as above; conditions: source organism: Marburg virus - Musoke, Kenya, 1980
HLA-B*58:01 = assay: as above; conditions: source organism: Marburg virus - Musoke, Kenya, 1980
HLA-A*02:06 = assay: IEDB peptide-MHC binding, purified MHC/competitive/fluorescence; filed as Kd, often an IC50 or EC50 that approximates it; ≥ and ≤ were set here for values at or beyond the usual limits of such assays; conditions: source organism: Orthomarburgvirus marburgense
HLA-B*15:17 = assay: as above; conditions: source organism: Orthomarburgvirus marburgense
[19] = source organism: Cryptosporidium parvum Iowa II
[20] = source organism: Escherichia coli O157:H7 str. EDL933
[21] = source organism: Mammarenavirus machupoense
[22] = source organism: Marburg virus - Musoke, Kenya, 1980
[23] = source organism: Orthomarburgvirus marburgense

Sequence: MSQMPPHPY
Kd (HLA-A*02:03; [19]): ≥ 20 µM
Kd (HLA-A*02:11; [19]): ≥ 20 µM
Kd (HLA-A*02:12; [19]): ≥ 20 µM
Kd (HLA-A*02:16; [19]): ≥ 20 µM
Kd (HLA-A*02:19; [19]): ≥ 20 µM
Kd (HLA-A*03:01; [19]): ≥ 20 µM
Kd (HLA-A*11:01; [19]): 0.377 µM
Kd (HLA-A*23:01): ≥ 20 µM
Kd (HLA-A*24:03; [19]): ≥ 20 µM
Kd (HLA-A*68:02; [19]): ≥ 20 µM
Kd (HLA-A*02:01 [1]; [19]): ≥ 20 µM
Kd (HLA-A*26:01 [2]): ≥ 20 µM
Kd (HLA-A*69:01 [3]; [19]): ≥ 20 µM
Kd (HLA-B*18:01 [4]): ≥ 20 µM
Kd (HLA-B*27:03 [5]): ≥ 20 µM
Kd (HLA-B*39:01 [6]; [19]): ≥ 20 µM
Kd (HLA-B*51:01 [7]): ≥ 20 µM

Sequence: GQAARDKHL
Kd (HLA-B*48:01; source organism: Burkholderia vietnamiensis G4): ≥ 20 µM

Kd (HLA-B*07:02; [20]): 0.007 µM
Kd (HLA-B*08:01): 0.197 µM
Kd (HLA-B*15:01 [8]): 0.08 µM
Kd (HLA-B*39:01 [6]; [20]): 0.061 µM
Sequence: MQRSGMLSL

Kd (HLA-B*48:01; source organism: Escherichia coli O139:H28 str. E24377A): ≥ 20 µM
Sequence: AQELVGHQL

Sequence: FQFTLHWEL
Kd (HLA-C*07:02): 2.05 µM
Kd (HLA-B*48:01; source organism: Entamoeba histolytica HM-1:IMSS): 0.726 µM

Sequence: LITEQFLCY
Kd (HLA-A*02:01 [9]): ≥ 20 µM
Kd (HLA-A*02:03; [21]): ≥ 20 µM
Kd (HLA-A*02:11; [21]): ≥ 20 µM
Kd (HLA-A*02:12; [21]): ≥ 20 µM
Kd (HLA-A*02:16; [21]): ≥ 20 µM
Kd (HLA-A*02:19; [21]): ≥ 20 µM
Kd (HLA-A*26:01 [10]; [21]): ≥ 20 µM
Kd (HLA-A*68:02; [21]): ≥ 20 µM
Kd (HLA-A*69:01 [11]): ≥ 20 µM
Kd (HLA-B*18:01 [12]; [21]): ≥ 20 µM
Kd (HLA-B*27:03 [13]): ≥ 20 µM
Kd (HLA-B*39:01 [14]; [21]): ≥ 20 µM
Kd (HLA-B*51:01 [15]): ≥ 20 µM
Kd (HLA-B*57:01; [21]): ≥ 20 µM
Kd (HLA-A*01:01 [16]): 0.0647 µM
Kd (HLA-A*29:02): 0.00132 µM
Kd (HLA-A*30:01): 6.33 µM
Kd (HLA-A*30:02): 1.86 µM
Kd (HLA-A*32:01): ≥ 25 µM

Sequence: LYKTIVNIW
Kd (HLA-A*01:01 [17]): ≥ 20 µM
Kd (HLA-A*03:01; [22]): ≥ 20 µM
Kd (HLA-A*11:01; [22]): ≥ 20 µM
Kd (HLA-A*24:03; [22]): 0.16 µM
Kd (HLA-A*26:01 [10]; [23]): ≥ 20 µM
Kd (HLA-A*31:01): ≥ 20 µM
Kd (HLA-B*08:02): ≥ 20 µM
Kd (HLA-B*15:01 [18]): ≥ 20 µM
Kd (HLA-B*18:01 [12]; [22]): ≥ 20 µM
Kd (HLA-B*27:05): ≥ 20 µM
Kd (HLA-B*39:01 [14]; [23]): ≥ 20 µM
Kd (HLA-B*40:01): ≥ 20 µM
Kd (HLA-B*46:01): ≥ 20 µM
Kd (HLA-B*57:01; [22]): ≥ 20 µM
Kd (HLA-B*58:01): ≥ 20 µM
Kd (HLA-A*02:01 [1]; [23]): 0.0509 µM
Kd (HLA-A*02:06): 0.11 µM
Kd (HLA-A*69:01 [3]; [23]): 1.58 µM
Kd (HLA-B*15:17): ≥ 20 µM
Kd (HLA-B*48:01; [23]): ≥ 20 µM

Sequence: FPSSSYRRPV
Kd (HLA-B*07:02; source organism: Influenza A virus (A/Fort Monmouth/1/1947-mouse adapted(H1N1))): 0.0016 µM
